In the supplement of paper PMC12764529:
± gives the half width of the 95% confidence interval.

Legend:
[1] = folding stability dG unfold from trypsin proteolysis; higher = more stable
Method in brief: (§1)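 Digests were run with trypsin and chymotrypsin at 11 concentrations in threefold dilutions, plus a no-protease condition, on designed mini-proteins in a PA-tagged cDNA display construct. The mini-proteins were under 80 residues, had no cysteine, and were kept only when AlphaFold2 dimer inter-PAE was above 15. After sequencing, Bayesian fitting of the counts gave K50, from which unfolding free energy was derived against a sequence-predicted unfolded-state K50 and a shared folded-state K50, per protease or combined.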

[2] = folding stability dG unfold from chymotrypsin proteolysis; higher = more stable
Method in brief: as §1

[3] = folding stability dG unfold (combined trypsin and chymotrypsin); higher = more stable
Method in brief: as §1

Row | Sequence | folding stability dG unfold [1] [kcal/mol] | folding stability dG unfold [2] [kcal/mol] | folding stability dG unfold [3] [kcal/mol]
1 | SAGGSAGGSAGGSDNSITLDFFFNNYYIKITFNPWNGNLEIDEVQKVPPPPKPKDPGDKSAGGSAGGSAGGS [r4_21_TrROS] | 2.71 ± 0.13 | 3.19 ± 0.091 | 2.94 ± 0.22
2 | SAGGSAGGMKIEIFQNDDGIYVRIKLKPPNGPPRTMVFPFTANQIKDALKQFPNYKIEDIEVYRSAGGSAGG [r6_879_TrROS] | 1.47 ± 0.12 | 2.18 ± 0.09 | 1.9 ± 0.15
3 | SAGGSAGGSAKIFARAPPGQWYRITVKYKGGNGDKKEHTATIPPNNPPPDIEDVEIEPIPPGSAGGSAGGSA [r18_223_TrROS] | 3.55 ± 0.14 | 3.15 ± 0.066 | 3.12 ± 0.25
4 | SAGGSALDPDDLEKVTIEFMFYNPNGNLLYEMTLEIYPDDGVIKMEHKQRRPGEPQKVTMEFPFDPSAGGSA [r15_278_TrROS] | 1.63 ± 0.29 | 1.67 ± 0.18 | 1.73 ± 0.28
5 | SAGGSAGGSAGKTIVLKTPEAIKNLKEGDVIKLKDGKKYKIVKVEYDKETNYFTIEIEKESAGGSAGGSAGG [r11_316_TrROS_Hall] | 2.96 ± 0.13 | 3.75 ± 0.17 | 3.54 ± 0.17
6 | SAGGSAGGDKKGKPKPQWVTIMFKVPDDDLPPEEIAKEFPGVKIERSPGMYMITVPVNGKWIPFSAGGSAGG [r6_739_TrROS] | 1.02 ± 0.039 | 1.25 ± 0.14 | 1.13 ± 0.093
7 | SAGGSAGGSPSVLDQVKRMIQDRIQERFGLPPGYTVQVTIDVEIDDGGIRIKKIKAEIQPPDNSAGGSAGGS [r12_481_TrROS] | 2.12 ± 0.095 | 2.42 ± 0.054 | 2.37 ± 0.17
8 | SAGGSAKKPEVTVEIEIVLPKEELEELLEALRKLPGLKVEVEEVEVREDGYVRVKLRITLPPGVKPSAGGSA [r15_441_TrROS_Hall] | 2.39 ± 0.062 | 3.48 ± 0.046 | 3.19 ± 0.12
9 | SAGGSAGGSAGHMVKVKITKSKGGSSLPLEEKEIELDIDEEKLEELKEEAKKKGYTVEIESAGGSAGGSAGG [r17_18_JUSTAS] | 0.0424 ± 0.11 | 0.0362 ± 0.15 | -0.0397 ± 0.26
10 | SAGGMPEGMVVLRIRVRVEKVEVRRDPAVPGRVSRRVEVREVEIELVVDSREALEALRELGFEIEEVSAGGS [r8_482_TrROS_Hall] | 3.79 ± 0.099 | 4.43 ± 0.11 | 4.22 ± 0.08
11 | SAMKITDVTVERNPDNGWYEVMVTFEFDNGPVTVKIWMPRDGNMPIDVYDMGNGEPKGEIWIPADQIKFSAG [r14_608_TrROS] | 0.893 ± 0.022 | 1.35 ± 0.1 | 1.15 ± 0.075
12 | SAGGKLPLPPGTEVEFLFRSPLDPRRLYLVRVRFEPVPPDRLRLRPRVFNPETGEEVEFEFEVPLDEGSAGG [r13_268_TrMRF] | 2.46 ± 0.041 | 3.234 ± 0.025 | 3 ± 0.052
13 | SARVYRLPDGRLVRFEPVPPRPPVIVIPVDFRISPDDPETRRRLAEEIRRRLLEELGLPEDTPIFVDPSSAG [r14_453_TrMRF] | 4.11 ± 0.18 | 4.45 ± 0.14 | 4.16 ± 0.22
14 | SAGGDFKPPVPTTQVLTFTIETSPEDPEKAKEIAEKLKKELLEKGAVKIEVTLDPEPGTVTVTVTLVKLSAG [r5_512_JUSTAS] | 1.95 ± 0.069 | 2.92 ± 0.063 | 2.51 ± 0.19
15 | SEVKLEVEEEEDGTLRVRLEVKLTREDGREVTRELELELTIELPPVEFETEEERRAALERLLEELEKLLESA [r9_790_TrROS_Hall] | 3.18 ± 0.075 | 3.89 ± 0.18 | 3.52 ± 0.13
16 | SAGVVEITFEVPETGEPFTLVIDEDGNVTGRWPSTGDEQEWKLGDKVITFPPNMSPELAAELEKEALSESAG [r14_561_TrMRF] | 0.66 ± 0.053 | 0.587 ± 0.25 | 0.644 ± 0.18
17 | SAGGSAGGSNGDKKPPVKWEWVMIEIEIPPDDIDEIAEEFPGFSVNYERDNGHYRVNIMIPVPYSAGGSAGG [r6_686_TrROS] | 1.35 ± 0.021 | 1.94 ± 0.093 | 1.73 ± 0.089
18 | SADMVMFPMTGEFHFPGWRIKVEITLMFHFTPNGKFGPNFHPMIKIEIVPPPPPPKITEEEADKANENGSAG [r14_442_TrROS] | 3.03 ± 0.22 | 4.13 ± 0.19 | 3.59 ± 0.26
19 | SAGGSAGGSMYVVKIKLKVYGENGEEYYFELELEVPEDELGEIEIELPGENLEFEAEVEVLPGSAGGSAGGS [r12_354_TrMRF] | 2.63 ± 0.15 | 3.73 ± 0.12 | 3.38 ± 0.14
20 | SAGGSAGIKAVLNLGDKPVLVLIEPLPDGSFPVIAIFADDGSKVEKVIPASDIGELLSLDPDKLTFSAGGSA [r15_629_TrMRF] | 0.859 ± 0.035 | 0.0558 ± 0.26 | 0.6 ± 0.18
21 | SAGGDEDKPKPKIEPKKEIEIVLPYPEDEVTPEELKARIEEETGEKITEIEVTRIPNSNEYKVKFTVESAGG [r13_457_JUSTAS] | 0.227 ± 0.04 | 0.68 ± 0.15 | 0.577 ± 0.13

Row | Sequence | folding stability dG unfold [1] [kcal/mol] | folding stability dG unfold [2] [kcal/mol] | folding stability dG unfold [3] [kcal/mol]
22 | SAGGSAGGSAGGMTIVIVVPAENLTPEEIAELLREAGYEVTVERREDGYLVVTVRLPEPSAGGSAGGSAGGS [r10_1254_TrROS_Hall] | 3.5 ± 0.083 | 3.08 ± 0.052 | 3.43 ± 0.048
23 | SAMKETEIPDPVTGNTYTVIDFDDATVVIKNYPDSLTITIIPPPSNTSTTIPMKPGEEEKVLKELGIPPSAG [r14_4_JUSTAS] | 0.591 ± 0.087 | 0.316 ± 0.23 | 0.568 ± 0.16
24 | SAGGNWTIEVEIEENPDGPYRITIRYRAPNGEEHKVTMWFDPDNGTFPIKLPGPLPPDQIEDIEIWPSAGGS [r16_95_TrROS] | 3.41 ± 0.36 | 5.04 ± 0.24 | 4.91 ± 0.19
25 | SAGGSANLPPGQPKIITITIPLGEEVRNPDGEPMTPEDIADNFQERFGNIEVEKSPNGWLEVTFWLSAGGSA [r15_645_TrROS] | 1.3 ± 0.06 | 0.637 ± 0.15 | 1.18 ± 0.19
26 | SAGGMTFSGVTREQALAIAKALEEEGYVLERVEVVEFPEDGTVRALVVVRDPETDEPLAEIELDIKPSAGGS [r16_750_TrMRF] | 1.53 ± 0.017 | 1.81 ± 0.036 | 1.7 ± 0.055
27 | SSDIKIEIDIERNDDGYLTFTIEIRHPDPQQLVDAAKEIILELFPPGVNIDVEPHPDGWVKAPIMFPLPKSA [r9_646_TrROS] | 0.735 ± 0.13 | 1.63 ± 0.086 | 1.35 ± 0.25
28 | ATVTVEKLPDGYRVTVTIGATYIDPETGKPVELSAPVTAFVPPEVPDPEVAAKRAAAEALAEFLAALPEGGS [r1_414_TrMRF] | 2 ± 0.057 | 1.74 ± 0.023 | 1.85 ± 0.091
29 | SAGGSAGGSAGMTYVYPGPDGKEYLAEVDPNIPGAEVTVTPPDTGETVTVPLSQVTEVPPSAGGSAGGSAGG [r11_822_JUSTAS] | 0.56 ± 0.05 | -0.449 ± 0.18 | 0.222 ± 0.063
30 | SMTPEEVKALAEELAERLKEEGYEVEVKVTVEEVDGEKYVTIEIEVRRPDGSTETFRLVIREDGSIEIYPSA [r9_1027_TrROS_Hall] | 3.49 ± 0.19 | 4.54 ± 0.17 | 4.37 ± 0.17
31 | SSYTVLEEKVESDPNKDSLTYLTLKTPDGRELTVTEPVKKVDDSWITNSTLTDPVGGRTTTSTTTVKLSGSA [r9_269_JUSTAS] | -0.977 ± 0.29 | -0.409 ± 0.17 | -0.487 ± 0.13
32 | SAGGSAGGSAGGDKNGKKELRPEVKIKVKIEAEIEPFRYPNNGMPMWILKISIEITSIDSAGGSAGGSAGGS [r10_877_TrROS] | 2.96 ± 0.18 | 4.75 ± 0.18 | 4.5 ± 0.19
33 | SAGGMMEIEVEIEKLEDGTYRIRIRVRLPNGEEVEKEMTFDRETGTLTITFDRPIEPDQIVEIEIEPSAGGS [r16_95_TrROS_Hall] | 3.94 ± 0.16 | 4.41 ± 0.2 | 4.27 ± 0.19
34 | MMTKEEIEKLAEELAKELEKKGYKIVKVEIEEVKPGEVKIKVDGKEITITLKDGRKLRIKVEVKKLPKEELS [r1_31_TrROS_Hall] | 1.97 ± 0.053 | 3.63 ± 0.11 | 3.04 ± 0.11
35 | SAGGPVVEKIRELLKELGYEVEVTDVKEDYVEIKVKLPDKEITLPDGSKIERLENGELRIWIPKEDLSAGGS [r8_297_TrROS_Hall] | 2.98 ± 0.061 | 3.4 ± 0.088 | 3.25 ± 0.083
36 | SAGGSAGGSAGHRSVMVTVDDIAKENGIKIPPGSYLMVTVEGNKVKDIMIQPMKPKPEDPSAGGSAGGSAGG [r11_616_TrROS] | -0.499 ± 0.44 | -0.0198 ± 0.24 | -0.17 ± 0.18
37 | SAGGAVEVKEIKILPPVLDPEGDPSNPLLRVEITTKITENTPEGKKILEKTKTYLVSPENLEEVLKKLSAGG [r13_149_JUSTAS] | 2.05 ± 0.065 | 1.98 ± 0.07 | 2.18 ± 0.13
38 | SAGGSANFNVKLEIKIIERNPGNPDYVIVRIKVEHRHPNPDGNPMEHRRPIPWIMITDPEEIKEFISAGGSA [r15_1019_TrROS] | 2.32 ± 0.12 | 2.39 ± 0.029 | 2.36 ± 0.084
39 | SAGGSAGGSAGRRLVLEFDDESLAVPAAEFLERVLGLELVSIERVPDGERERVLVVLDFPSAGGSAGGSAGG [r11_232_TrMRF] | 1.78 ± 0.036 | 2.45 ± 0.05 | 2.21 ± 0.09
40 | SAGKKKIKIKLENGETKTLEIKPGETVEITFPNGLKATITKVKDGKIEIKVKEVYVKDKNGKWKKLKDLSAG [r5_417_TrROS_Hall] | 1.72 ± 0.066 | 2.6 ± 0.17 | 2.29 ± 0.29
41 | SAGGSAGGSAGSIGFDSLEEAEKAIEEARRNNVPLTIELRLPDGSTLRIPVDLEIPEDDPSAGGSAGGSAGG [r17_462_TrMRF] | 1.7 ± 0.056 | 1.19 ± 0.037 | 1.46 ± 0.12
42 | SAGGSAGGSAGGVKPGDFVLIKLTLTEKYYDPETGELIEEKEVELTILIPKGTSLEELKLSAGGSAGGSAGG [r7_591_TrROS_Hall] | 2.3 ± 0.17 | 1.96 ± 0.089 | 2.17 ± 0.25
